The data set in a line: soluble on expression in E. coli; label from the status in PepcDB or PDB records.
For “MSSALISSEQALNDYFTALLDEETAEFESTLKPEPVWEMAPAIQSVPNKSYFDAEIEELELPNLEDVQRLLSQLESSNPVADLDLEQILEENTAKIAKIDPVVQPCSVVEEIQEWEIETSYVEPDIETPESVIEDDLEPESVDTEAEREIAIETSIEEPVAEVPVVEAQAVPETQAGRNKLGTWTNTIREKDFQVLYFDVNGVTFAVPLDELGGIHRMTTLNHLIGRPAWYLGLQTNRDSQLDVVDTAKWVMAEKLRDESYKQAYQYIVMLGESAWGLASTQLMGTELLSTEKVRWREQVGKRPWLAGMVKEKMCALIHVQALIAMLNAGLDVKALEN”, the “soluble on expression in E. coli” value was “not soluble”. In the case of “MSSAQFDHVTVIKKSNVYFGGLCISHTVQFEDGTKKTLGVILPTEQPLTFETHVPERMEIISGECRVKIADSTESELFRAGQSFYVPGNSLFKIETDEVLDYVCHLEG”, the “soluble on expression in E. coli” value is “soluble”. As for “MSSCSSLQSSSSRGASTDSLNTTSNGFSDGGSNLLPPKPNRIGCAATGAQSETDLRFVTSRDTHSSIPLNEPFGFGEKSPRAFMSENDLSAGAAGASTDFPEVTRTPSYLRISCALNGYTKSPNKSDLTPIAPHPPVSTMGESFVERRSRMFSQPQQRNPAPGFSSPLPPTTVSSQSASSEIEWSVEKF”, the entry is “not soluble”. “MSSDKSIEKNTDTIASEVHEGDNHSNNLGSMEEEIKSTPSDQYEEIAIIPTEPLHSDKELNDKQQSLGHEAPTNVSREEPIGISGDEDTQITEQNVNEQRQETREPSSEIDLNEPLDVEKDVTTDVQAPNGLNIEKEYDAVKENEKVYADTKEVVSSPENREVTGKNSGGEKSSSSKFLDDESGTTTAANANDISISSEVTPERSSENDNNQIHITNEVAAGINLNENKEQKAAIEDGPVTAENLSSETARKVPPIPTQIINEKGDNSSENEVSAIPTTSSPPLPPRQNVATSTSPKLPPRGKQREQPPKTKNAVPPPLEEEMKSEKFRKNFEETKRNSYHHVPLTGSKTAQLESTAEINLIASRYRKTSHHLNKEGEETRESLQEGQSFLKSTFTSFLENLSEYNEVENVNEEDREMFKIDWSFWTQVVNDYATVASNEPENLEAHVTNGIPPQIRGIIWQLMANSKSREMEDIYETLLDTECLHEATIRRDLRRTKFVAEDKMESLYKVIKVYSVYDPDVGYTQGMGFIAAPLLINCENEAESFGLLVGLMKNYGLRELFLPGMPGLMLMLYQFDRLLEEHSPSLYNRLIREGISSTMYATQWFLTFFAYKFPLEFVLRIFDIVFVEGIEVLLKFAVNLMLKNEETLVKLRFDELLDFLKDELFNYYLMGNQDDASVVQMGLSNGNSFKGNDDGTFSYNVDLFVHDAMTGVYITPLTLRRYRGEYVEIHEKEQKKEDHYESLRIQNHQLQREAQKLEHDYSILNKENISAANELIQNRLNMEMLLDEKNDLINTITDIKSQIEEEIRKQNLPNPDASLPKADLREDLERTISRNNEVMRENGQLEERITELQAEIDELININKEQVSTASLLERDSKAKGRKGWTGFKKVFK”: the “soluble on expression in E. coli” value was “soluble”. As for “MSSFTHFNDQGRAKMVDISDKKATVRTAIACSSIVVTKEIYDKISHNEIGKGDVLAVAQIAGIMAAKRTSDIIPMCHPLLLKGVDVSFDWKQSDEQYRLLIEVKVKTEGSTGVEMEALTAASATALTVYDMCKAVDKGMIIGETYLLEKTGGKSGDYTRKS”, the entry is “not soluble”. With “MSSGNILWGSQNPIVFKNSFGVSNADTGSQDDLSQQNPFAEGYGVLLILLMVIQAIANNKFIEVQKNAERARNTQEKSNEMDEVIAKAAKGDAKTKEEVPEDVIKYMRDNGILIDGMTIDDYMAKYGDHGKLDKGGLQAIKAALDNDANRNTDLMSQGQITIQKMSQELNAVLTQLTGLISKWGEISSMIAQKTYS”, the “soluble on expression in E. coli” value is “not soluble”.

In the case of “MSSKEQKTPEGQAPEEIIMDQHEEIEAVEPEASAEQVDPRDEKVANLEAQLAEAQTRERDGILRVKAEMENLRRRTELDIEKAHKFALEKFINELLPVIDSLDRALEVADKANPDMSAMVEDIELTLKSMLDVVRKFGVEVIAETNVPLDPNVHQAIAMVESDDVAPGNVLGIMQKGYTLNGRTIRAAMVTVAKAKA”, the “soluble on expression in E. coli” value is listed as “soluble”. Consider “MSSKSIHEKRAIAKYAASLIEDGDCIFVDAGTTTYELIDYLEGKDILVVSNGLSHIDTLIQKNIKCYVIGGNIKISTKAITGCDALMCLSKFRFDKCFIGANGVHHTYGLTTPDTEEAILKECAINNSRKAYVLADDSKFGEISTIKFSDINKCVIITNEKPKDNTYDKKTDIKVVDILEHHHHHH”, for which the “soluble on expression in E. coli” value is recorded as “soluble”. As for “MSSLCPYTGRPTGLFRDFEDMMPYWAQRHSMLNNFNNIVPQQLNEVENTAQKFCVKLDVAAFKPEELKVNLEGHVLTIEGHHEVKTEHGFSKRSFTRQFTLPKDVDLAHIHTVINKEGQMTIDAPKTGSNTTVRALPIHTSAGHAVTQKPSSTTTTGKH”, the “soluble on expression in E. coli” value is “not soluble”. Take “MSSLHLDALHWSPDASTELLRGVHLEVPAGSFVGLIGPNGSGKTSLLRCAFRYARPQRGRVVLDGDDLWRQPPRWAARRIAVVLQEFPEDFGLAVEDVVAMGRTPHKGLFDGHGADDRQRVRQALLQVGLEGRAASPFASLSGGEKQRALLARALVQEPRLLILDEPTNHLDPRYQLELLRLLRSLGLSTLASFHDLNLAAAFCDRLYVLDGGRIVAQGTPTEVLDADLLWRVFGVRALVDRHPLADHPR”: the “soluble on expression in E. coli” value was “not soluble”. As for “MSSNALYTDLSGYYDLMCSDINYQQQSASIHRLHQFLGNNGKQHLDLACGTGPHVRHFIDLGYQCSGLDINQPMLDMAMRRCPEAQFNLQDMTAFYLEQPVDLITCFLYSIHYSAGIERLKSCIASVHRALNDGGIFCFNSVDKHCIDNRLSIKHFAEFEGYHFAFESGWHYNGQGEKQSLNLSIAKRQQPFTQLTDFEADTSLHQTELWQDQHTMVATSFAELQALLAPYFEVHIFEHDYEKIVPWDLSSGNALFVCVKILEHHHHHH”, the entry is “not soluble”. Consider “MSSNECFKCGRSGHWARECPTGGGRGRGMRSRGRGGFTSDRGFQFVSSSLPDICYRCGESGHLAKDCDLQEDACYNCGRGGHIAKDCKEPKREREQCCYNCGKPGHLARDCDHADEQKCYSCGEFGHIQKDCTKVKCYRCGETGHVAINCSKTSEVNCYRCGESGHLARECTIEATA”, for which the “soluble on expression in E. coli” value is reported as “soluble”. For “MSSNNAGESDGTGPALPTVWPGNAYPLGATYDGAGTNFSLFSEIAEKVELCLIDEDGVESRIPLDEVDGYVWHAYLPNITPGQRYGFRVHGPFDPAAGHRCDPSKLLLDPYGKSFHGDFTFGQALYSYDVNAVDPDSTPPMVDSLGHTMTSVVINPFFDWAYDRSPRTPYHETVIYEAHVKGMTQTHPSIPPELRGTYAGLAHPVIIDHLNELNVTAVELMPVHQFLHDSRLLDLGLRNYWGYNTFGFFAPHHQYASTRQAGSAVAEFKTMVRSLHEAGIEVILDVVYNHTAEGNHLGPTINFRGIDNTAYYRLMDHDLRFYKDFTGTGNSLNARHPHTLQLIMDSLRYWVIEMHVDGFRFDLASTLARELHDVDRLSAFFDLVQQDPVVSQVKLIAEPWDVGEGGYQVGNFPGLWTEWNGKYRDTVRDYWRGEPATLGEFASRLTGSSDLYEATGRRPSASINFVTAHDGFTLNDLVSYNDKHNEANGENNRDGESYNRSWNCGVEGPTDDPDILALRARQMRNMWATLMVSQGTPMIAHGDEIGRTQYGNNNVYCQDSELSWMDWSLVDKNADLLAFARKATTLRKNHKVFRRRRFFEGEPIRSGDEVRDIAWLTPSGREMTHEDWGRGFDRCVAVFLNGEAITAPDARGERVVDDSFLLCFNAHDHDVEFVMPHDGYAQQWTGELDTNDPVGDIDLTVTATDTFSVPARSLLVLRKTL”, the “soluble on expression in E. coli” value is “not soluble”. As to “MSSQISEIEQEQLIEKLEIFKIHGRDKRGRKILRIIGKFFPARFLSLDVLKKYLEEKIFPRLGRKPFAVLYVHTGVQRSENFPGISALRAIYDAIPVNVRDNLQEVYFLHPGLQSRLFLATCGRFLFSGGLYGKLRYISRVDYLWEHVRRNEIEMPEFVYDHDDDLEYRPMMDYGQESDHARVFAGAAVDSSVSSFSMRCIS”, the “soluble on expression in E. coli” value is on record as “soluble”. As for “MSSRKKVRVLLLKNKTVPIDKYELECRSKAFEPIFVPLIKHTHVIQDFRNVLNTIPNYLNTINYIIITSQRTVESLNEAIIPTLTSEQKAALLSKTVYTVGPATANFIRRSGFINVKGGEDAGNGSILADIIIDDLSTDIKACPPSELLFLVGEIRRDIIPKKLHSKGIKVREVVTYKTEELSDGFKRFIHAMKECDEDEVFSDWVVVFSPQGTKEITQYLGDSNRLPGSHLRVASIGPTTKKYLDDNDVTSDVVSPKPDPKSLLDAIELYQRHK”, the “soluble on expression in E. coli” value was “soluble”. Regarding “MSSRVLTPDVVGIDALVHDHQTVLAKAEGGVVAVFANNAPAFYAVTPARLAELLALEEKLARPGSDVALDDQLYQEPQAAPVAVPMGKFAMYPDWQPDADFIRLAALWGVALREPVTTEELASFIAYWQAEGKVFHHVQWQQKLARSLQIGRASNGGLPKRDVNTVSEPDSQIPPGFRG”, the “soluble on expression in E. coli” value is listed as “soluble”. With “MSSTKSIPADVIAKLQKFDELITKLEDAVEEVDVGVEKHFERSAHEMALVDTMSMFLMDSLMWAVQATKGGGADKNDDLLIDLARTKRMTADMKEINLRQDAPRINKQAAANFVRNALWEQPEQGESSKKAAK”, the “soluble on expression in E. coli” value is reported as “not soluble”.

Consider “MSSVAVLTQESFAEHRSGLVPQQIKVATLNSEEESDPPTYKDAFPPLPEKAACLESAQEPAGAWGNKIRPIKASVITQVFHVPLEERKYKDMNQFGEGEQAKICLEIMQRTGAHLELSLAKDQGLSIMVSGKLDAVMKARKDIVARLQTQASATVAIPKEHHRFVIGKNGEKLQDLELKTATKIQIPRPDDPSNQIKITGTKEGIEKARHEVLLISAEQDKRAVERLEVEKAFHPFIAGPYNRLVGEIMQETGTRINIPPPSVNRTEIVFTGEKEQLAQAVARIKKIYEEKKKKTTTIAVEVKKSQHKYVIGPKGNSLQEILERTGVSVEIPPSDSISETVILRGEPEKLGQALTEVYAKANSFTVSSVAAPSWLHRFIIGKKGQNLAKITQQMPKVHIEFTEGEDKITLEGPTEDVSVAQEQIEGMVKDLINRMDYVEINIDHKFHRHLIGKSGANINRIKDQYKVSVRIPPDSEKSNLIRIEGDPQGVQQAKRELLELASRMENERTKDLIIEQRFHRTIIGQKGERIREIRDKFPEVIINFPDPAQKSDIVQLRGPKNEVEKCTKYMQKMVADLVENSYSISVPIFKQFHKNIIGKGGANIKKIREESNTKIDLPAENSNSETIIITGKRANCEAARSRILSIQKDLANIAEVEVSIPAKLHNSLIGTKGRLIRSIMEECGGVHIHFPVEGSGSDTVVIRGPSSDVEKAKKQLLHLAEEKQTKSFTVDIRAKPEYHKFLIGKGGGKIRKVRDSTGARVIFPAAEDKDQDLITIIGKEDAVREAQKELEALIQNLDNVVEDSMLVDPKHHRHFVIRRGQVLREIAEEYGGVMVSFPRSGTQSDKVTLKGAKDCVEAAKKRIQEIIEDLEAQVTLECAIPQKFHRSVMGPKGSRIQQITRDFSVQIKFPDREENAVHSTEPVVQENGDEAGEGREAKDCDPGSPRRCDIIIISGRKEKCEAAKEALEALVPVTIEVEVPFDLHRYVIGQKGSGIRKMMDEFEVNIHVPAPELQSDIIAITGLAANLDRAKAGLLERVKELQAEQEDRALRSFKLSVTVDPKYHPKIIGRKGAVITQIRLEHDVNIQFPDKDDGNQPQDQITITGYEKNTEAARDAILRIVGELEQMVSEDVPLDHRVHARIIGARGKAIRKIMDEFKVDIRFPQSGAPDPNCVTVTGLPENVEEAIDHILNLEEEYLADVVDSEALQVYMKPPAHEEAKAPSRGFVVRDAPWTASSSEKAPDMSSSEEFPSFGAQVAPKTLPWGPKR”, for which the “soluble on expression in E. coli” value is “soluble”.
